B1: UBN1(92–175) [human] / H3.3/H4 [human | X. laevis] (parent complex)
chain 1: NDEEKERHKVEALARKFEEKYGGKKRRKDRIQDLIDMGYGYDESDSFIDNSEAYDELVPASLTTKYGGFYINSGTLQFRQASES
chain 2: not shown
chain 3: not shown

The record followed here is article PMC4510971 (2015).

Variants of B1 are the subject of the test. Briefly: fluorescence polarization competition binding; 10 nM FITC-UBN1(127–148), 6.5 μM H3.3/H4; 20 mM HEPES pH 7.5, 750 mM NaCl, 1 mM TCEP; parent: 1.66e+04 nM. (In general: Fluorescence polarisation rises when a labelled molecule tumbles more slowly, as on binding a larger partner.)
Consider chain 1 L57A, for which the IC50 (commonly the concentration that inhibits the measured activity by half) worked out at 19.6 µM.
Consider chain 1 I31A, for which the IC50 was 16.9 µM.
Regarding chain 1 Q32A, the IC50 came to 13.8 µM.
For chain 1 G38A, the half-maximal inhibitory concentration (IC50) turned out to be 67.8 µM.
The result for chain 1 D36A reads 21.1 µM; that for chain 1 D33A, 19.6 µM; that for chain 1 A53I, 16.3 µM.
Regarding chain 1 I35A, the IC50 amounted to 13.8 µM.
chain 1 M37A: the IC50 turned out to be 22.6 µM.
For chain 1 S46A, the IC50 came to 16.2 µM.
Consider chain 1 E56A, for which the IC50 was 22.9 µM.
As to chain 1 D55A, the IC50 turned out to be 23 µM.
In the case of chain 1 G40A, the IC50 was found to be 19.9 µM.
Consider chain 1 E52A, for which the IC50 was 29.3 µM.
chain 1 L34A: the IC50 was found to be 15.1 µM.
As for chain 1 Y54A, the IC50 amounted to 16.4 µM.
Take chain 1 Y39A: the IC50 is 14.4 µM.
